Consider 1 molecule from PMC2714985 (Journal of immunology (Baltimore, Md. : 1950), 2009).

In this test the target is rat collagen type I (rat, UniProt P02454 152-1207; P02466 86-1125). In words: SPR.
Chain of rat collagen type I (P02454 152-1207, chain 1 of 2): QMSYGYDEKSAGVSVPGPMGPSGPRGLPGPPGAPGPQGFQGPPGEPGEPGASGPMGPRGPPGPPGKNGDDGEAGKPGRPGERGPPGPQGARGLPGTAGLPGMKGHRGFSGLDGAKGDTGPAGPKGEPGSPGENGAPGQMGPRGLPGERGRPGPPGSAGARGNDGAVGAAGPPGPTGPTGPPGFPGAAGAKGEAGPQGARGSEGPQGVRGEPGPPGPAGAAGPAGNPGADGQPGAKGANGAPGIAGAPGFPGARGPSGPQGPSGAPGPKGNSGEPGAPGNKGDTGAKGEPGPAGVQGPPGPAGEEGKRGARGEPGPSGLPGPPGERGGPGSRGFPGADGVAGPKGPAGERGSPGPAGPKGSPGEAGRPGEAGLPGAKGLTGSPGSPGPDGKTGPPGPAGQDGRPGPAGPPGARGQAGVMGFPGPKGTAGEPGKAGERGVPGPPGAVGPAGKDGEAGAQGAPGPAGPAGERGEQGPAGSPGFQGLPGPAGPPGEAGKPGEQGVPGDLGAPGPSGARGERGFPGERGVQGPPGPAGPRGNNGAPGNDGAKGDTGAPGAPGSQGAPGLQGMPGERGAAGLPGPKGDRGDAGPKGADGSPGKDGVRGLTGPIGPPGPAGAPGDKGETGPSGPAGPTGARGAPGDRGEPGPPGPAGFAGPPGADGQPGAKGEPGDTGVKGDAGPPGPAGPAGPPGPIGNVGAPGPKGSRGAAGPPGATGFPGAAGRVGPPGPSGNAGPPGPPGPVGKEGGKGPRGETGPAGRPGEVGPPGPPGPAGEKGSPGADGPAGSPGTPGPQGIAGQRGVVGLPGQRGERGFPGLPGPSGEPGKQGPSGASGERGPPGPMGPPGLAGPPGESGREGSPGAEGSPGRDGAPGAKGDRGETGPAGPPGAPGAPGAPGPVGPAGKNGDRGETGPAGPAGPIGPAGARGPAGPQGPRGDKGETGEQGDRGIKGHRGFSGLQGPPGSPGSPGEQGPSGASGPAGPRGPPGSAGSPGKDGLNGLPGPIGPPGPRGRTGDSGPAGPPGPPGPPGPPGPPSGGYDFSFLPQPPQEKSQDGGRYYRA
Chain of rat collagen type I (P02466 86-1125, chain 2 of 2): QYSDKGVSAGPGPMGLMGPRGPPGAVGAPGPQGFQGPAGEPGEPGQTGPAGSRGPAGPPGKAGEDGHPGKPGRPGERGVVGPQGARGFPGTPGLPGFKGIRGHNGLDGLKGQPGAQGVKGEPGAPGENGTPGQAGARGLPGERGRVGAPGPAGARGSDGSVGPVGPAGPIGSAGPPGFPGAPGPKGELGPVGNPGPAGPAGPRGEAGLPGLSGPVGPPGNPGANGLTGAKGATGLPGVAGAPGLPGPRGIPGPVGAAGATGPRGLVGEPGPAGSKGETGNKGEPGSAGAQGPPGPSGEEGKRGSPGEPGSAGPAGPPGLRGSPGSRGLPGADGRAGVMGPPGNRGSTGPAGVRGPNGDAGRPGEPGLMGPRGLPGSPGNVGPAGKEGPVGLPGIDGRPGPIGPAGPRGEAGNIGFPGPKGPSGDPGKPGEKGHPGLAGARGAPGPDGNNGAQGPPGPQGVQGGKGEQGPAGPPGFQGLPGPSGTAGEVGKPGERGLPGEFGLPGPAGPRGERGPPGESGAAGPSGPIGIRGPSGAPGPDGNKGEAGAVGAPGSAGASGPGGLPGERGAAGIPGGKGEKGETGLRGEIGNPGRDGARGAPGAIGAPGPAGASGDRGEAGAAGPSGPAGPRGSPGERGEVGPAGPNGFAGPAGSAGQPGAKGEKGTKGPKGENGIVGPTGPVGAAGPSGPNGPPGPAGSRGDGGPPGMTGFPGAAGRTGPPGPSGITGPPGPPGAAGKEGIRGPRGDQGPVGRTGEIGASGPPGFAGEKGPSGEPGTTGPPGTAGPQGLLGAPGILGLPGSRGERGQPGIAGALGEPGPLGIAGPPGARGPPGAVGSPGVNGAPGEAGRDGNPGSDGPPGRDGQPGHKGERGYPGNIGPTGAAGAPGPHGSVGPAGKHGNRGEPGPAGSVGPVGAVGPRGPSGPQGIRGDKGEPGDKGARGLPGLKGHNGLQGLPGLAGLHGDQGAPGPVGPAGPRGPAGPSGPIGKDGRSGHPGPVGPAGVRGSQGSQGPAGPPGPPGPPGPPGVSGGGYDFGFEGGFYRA

B1: LAIR-1/Fc wt fusion protein (Fc fusion, human, UniProt Q6GTX8 22-165, looked up)
chain: QEEDLPRPSISAEPGTVIPLGSHVTFVCRGPVGVQTFRLERDSRSTYNDTEDVSQASPSESEARFRIDSVREGNAGLYRCIYYKPPKWSEQSDYLELLVKESSGGPDSPDTEPGSSAGPTQRPSDNSHNEHAPASQGLKAEHLY
What is called Kd is the constant that tells how readily two partners part at equilibrium. Lower therefore signals tighter binding. A word on the koff: it is the rate constant with which the complex falls apart. Take B1: the Kd amounted to 145 nM and the off-rate constant (koff) stood at 0.0456 s⁻¹.
